This note sets out measurements from patent US6899879.

This test has as its target human CD40 antigen on the surface of human B cells (human) (UniProt P25942). Put plainly: cell-based or functional assay.
Sequence of UniProt P25942 (P25942 21-277): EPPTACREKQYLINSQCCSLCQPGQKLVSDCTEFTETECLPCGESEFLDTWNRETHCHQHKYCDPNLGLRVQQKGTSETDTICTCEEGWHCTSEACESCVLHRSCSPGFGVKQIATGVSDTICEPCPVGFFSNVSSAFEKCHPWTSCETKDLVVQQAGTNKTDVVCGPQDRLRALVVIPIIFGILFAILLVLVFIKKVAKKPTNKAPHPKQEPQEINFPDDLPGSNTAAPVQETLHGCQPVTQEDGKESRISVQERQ

The substance anti-CD40 monoclonal antibody 5D12 registered a 50% of maximal inhibition of human T-cell induced immunoglobulin production by human B cells of 30 ng/mL, a concentration giving complete inhibition of EL4B5-induced human B-cell proliferation of 10 ng/mL, a half-maximal inhibition of EL4B5-induced human B-cell proliferation of 1 ng/mL and a percentage of inhibition of immunoglobulin production by human B cells of 40 to 70%.
